One molecule from patent publication US20240376556, “BIOSENSORS FOR DETECTING AND/OR NEUTRALIZING BIOAVAILABLE URANIUM AND RELATED U-SENSITIVE GENETIC MOLECULAR COMPONENTS, GENE CASSETTES, VECTORS, GENETIC CIRCUITS, COMPOSITIONS, METHODS AND SYSTEMS” (LAWRENCE LIVERMORE NATIONAL SECURITY, LLC, published 2024) can be followed below.

For this data set, the target named is T1, UrpR (CCNA_01362), native in cells (Caulobacter crescentus NA1000).
T1 chain: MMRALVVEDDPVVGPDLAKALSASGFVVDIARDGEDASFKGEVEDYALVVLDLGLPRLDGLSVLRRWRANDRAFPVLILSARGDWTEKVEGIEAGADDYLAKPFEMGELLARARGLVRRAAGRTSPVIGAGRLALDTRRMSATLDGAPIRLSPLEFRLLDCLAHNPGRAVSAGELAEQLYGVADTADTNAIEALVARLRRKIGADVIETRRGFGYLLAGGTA
Put plainly: cell_activity; P1361-gfp induction in wild type with 20 uM U; U induction abolished by CCNA_01362 deletion.

B1: P1361 promoter (dsDNA)
DNA 1: GAACGATAGCGCCGCCTGCGAGCGCGACCTCAGGCCTCGGACGAAGCGCGTCCGGGGCCTTTTCTTGTCGATGTTCAGCGCCTGGTTACCGGCGATGGCGCGGTGTCAGCGTTCGGGCGTTGCGATGCGTCAGGAGCGTGTCAGGATGCCTGTGGAATCCTAAGCGCCATCACCCAGTCCCGATCTTTCC
DNA 2: GGAAAGATCGGGACTGGGTGATGGCGCTTAGGATTCCACAGGCATCCTGACACGCTCCTGACGCATCGCAACGCCCGAACGCTGACACCGCGCCATCGCCGGTAACCAGGCGCTGAACATCGACAAGAAAAGGCCCCGGACGCGCTTCGTCCGAGGCCTGAGGTCGCGCTCGCAGGCGGCGCTATCGTTC
B1: the activity was 10.5 fold.
